Stoichiometry N and occupancy (TraN molecules for each OmpK36 trimer) (molecule for each OmpK36 trimer) data for two substances are collected here from article PMC9246713.

This test concerns the target OmpK36WT (wild type OmpK36 porin trimer of K. pneumoniae ATCC 43816) (Klebsiella pneumoniae). Briefly: cryo-EM structure; OmpK36-TraN sample 0.33 mg ml^-1 diluted 1:6 in buffer A (50 mM NaCl, 10 mM HEPES pH 7.0, 0.03% DDM); graphene oxide-coated grids; Titan Krios 300 keV; 2.6 Å.

By stoichiometry N is commonly meant the number of molecules, sites or subunits per partner or assembly. Take “OmpK36WT (wild type OmpK36 porin trimer of K. pneumoniae ATCC 43816) (natural protein)”: the stoichiometry N was found to be 3.
Regarding “TraN from the plasmid pKpQIL (mature TraN, D28 to Q651) (natural protein)”, the occupancy (TraN molecules for each OmpK36 trimer) (molecule for each OmpK36 trimer) is under 1.
